Experimental data from the supplement of paper PMC10567573.

B1: MED27 (parent)
chain: YNENVYTEDGKLDIWSKSNYQVFQ

Variants of: B1
Assay: protein stability index of a GFP-peptide fusion (GPS, HEK-293T) (PSI 1-6); higher = more stable
Settings: c terminus: a fixed tail appended
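Note: lentivirally expressed fusions sorted by FACS into six bins by GFP to DsRed ratio, PSI derived from sequencing read proportions per bin multiplied by bin number.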

Protein stability index, by site and new letter:
S18: D 3.09 | C 1.86 | F 1.36 | K 1.97 | P 2.13 | A 2.34 | V 2.58 | W 1.68 | R 1.52 | L 2 | H 2.42 | Y 2.26 | M 2.21 | I 1.96 | Q 2.56 | T 2.62 | G 1.91 | E 3.33 | N 2.69
N19: G 1.96 | K 1.96 | P 1.88 | F 1.67 | R 2.4 | M 1.94 | Q 2.26 | T 1.78 | L 1.58 | W 1.73 | Y 2.56 | A 2.52 | C 1.59 | V 1.58 | D 2.75 | S 2.05 | H 2.19 | I 1.6 | E 3.36
Q21: L 2.07 | V 1.82 | W 2.45 | C 2.01 | D 2.41 | I 2.44 | P 1.98 | H 2.64 | S 1.97 | T 2.76 | Y 2.02 | M 2.21 | N 2.04 | A 2.46 | R 2.23 | E 2.09 | G 1.59 | K 2.44 | F 1.79
W15: V 3.5 | G 4.19 | Q 3.89 | E 4.12 | R 3.64 | S 3.83 | H 3.85 | D 4.42 | F 2.81 | K 4.03 | A 4.13 | C 3.74 | L 3.32 | I 3.31 | T 3.7 | P 3.74 | M 3.3 | Y 3.19 | N 4.08
Y20: V 2.52 | H 2.58 | W 1.64 | P 3.01 | M 1.92 | I 2.37 | R 2.59 | A 2.49 | S 2.72 | L 2.35 | K 2.76 | G 2.62 | N 3.28 | Q 2.94 | E 3.2 | F 2.25 | T 2.9 | D 3.38 | C 2.49
K17: Q 1.89 | I 1.74 | Y 1.98 | W 1.92 | C 1.54 | T 1.84 | F 1.68 | D 2.26 | E 2.37 | M 2.3 | A 2.24 | H 2.43 | V 2.17 | P 2.68 | G 2.34 | S 1.98 | R 1.95 | N 2.07 | L 2.22
I14: W 2.15 | V 2.62 | R 3.23 | F 2.3 | G 3.29 | Y 1.95 | Q 3.07 | T 2.78 | C 2.92 | A 2.9 | D 3.48 | K 2.71 | E 3.87 | H 2.83 | M 2.65 | N 3.28 | S 3.23 | L 2.49 | P 2.29
S16: M 1.81 | H 1.93 | P 2.05 | E 2.6 | T 2.38 | F 2.87 | V 2.06 | L 1.82 | A 2.45 | R 1.78 | Q 2.26 | W 1.91 | D 3.25 | N 2.12 | G 2.33 | C 2.06 | K 2.04 | I 1.98 | Y 2.02
V22: D 2.83 | G 2.24 | P 2.66 | M 2.37 | F 2.79 | I 2.22 | K 2.4 | Q 2.73 | C 2.56 | A 2.3 | N 2.41 | L 2.28 | R 2.21 | H 2.27 | E 2.52
